Measurements taken from the supplement of paper PMC10598134.
± gives the standard deviation.

Assay: collision cross section of unmodified peptide (TIMS, N2, iRT-aligned); higher = larger / more extended gas-phase ion
In short: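 Synthetic peptide pools (~100 fmol/µL in 2% acetonitrile/0.1% formic acid, iRT standard spiked 1:40) were separated on a 120-min nanoflow C18 gradient at 60 °C. They were analysed on a timsTOF Pro/HT (dda-PASEF, nitrogen, ~2.4 mbar) and identified with MaxQuant. 1/K0 was calibrated with three reference ions and aligned run-wise to the median iRT peptide deviation. Collision cross section came from the Mason-Schamp equation, averaging 1–3 technical replicates of the most abundant feature per charge state.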

Row | Substance | collision cross section (charge state: 2) | collision cross section (charge state: 3)
1 | GEAGPTGPQGEPGVR | 385.03 ± 0.4 Å² | –
2 | ASPPLFQSR | 339.74 ± 0.58 Å² | –
3 | RLDINTNTYTSQDLK | – | 533.11 ± 1 Å²
4 | GFCFITYTDEEPVKK | 461.17 ± 2.5 Å² | 509.46 ± 2.1 Å²
5 | VLPSITTEILK | 373.13 ± 0.14 Å² | –
6 | YTAILNQIPSHSSSIR | 475.98 ± 0.82 Å² | 510.98 ± 3.8 Å²
7 | GPQNATDSYVHK | 381.43 ± 1.1 Å² | 445.36 ± 1.8 Å²
8 | SRGAIISQYYNR | 400.77 ± 1.6 Å² | 465.8 ± 0.66 Å²
9 | LELAQYR | 324.63 ± 0.15 Å² | –
10 | ANEKTESSSAQQVAVSR | 440.94 ± 1.7 Å² | 497.75 ± 27 Å²
11 | SSDLTDRVK | 344.22 ± 0.14 Å² | 424.95 ± 0.87 Å²
12 | YTTNNSSEQR | 353.04 ± 0.15 Å² | –
13 | VNIGQGSHPQKVK | 416.89 ± 2.1 Å² | 469.44 ± 3.7 Å²
14 | LLFSNTAAQKLR | 416.62 ± 2.1 Å² | 485.85 ± 3.4 Å²
15 | DYSSGFGGKYGVQADR | 432 ± 2.6 Å² | 489.69 ± 5.9 Å²
16 | LRQQLQAK | 346.98 ± 0.88 Å² | 414.5 ± 11 Å²
17 | SSFAYKDQNENR | 418.44 ± 1.2 Å² | 454.53 ± 4.1 Å²
18 | VNVEAPDVNLEGLGGKLK | 454.51 ± 2.9 Å² | 537.97 ± 2.9 Å²
19 | SPSDSGYSYETIGKTTK | 441.25 ± 2.3 Å² | 517.54 ± 3.3 Å²
20 | FIHQQPQSSSPVYGSSAK | – | 514.9 ± 0.21 Å²
21 | FGRGTGLTQPSQR | 395.55 ± 1.4 Å² | 470.69 ± 2.1 Å²
22 | CQGGQETQEYR | 370.06 ± 0.16 Å² | –
23 | GETASKLQSEISR | 404.79 ± 2.8 Å² | 463.95 ± 4.6 Å²
24 | GEQGEPGAPGIR | 347.53 ± 0.79 Å² | –
25 | PGSPGPPGSPGPR | 347.56 ± 0.41 Å² | 430.78 ± 12 Å²
26 | SGKFTQQDIDEAK | 412.77 ± 2.3 Å² | 486.03 ± 4.9 Å²

Row | Substance | collision cross section (charge state: 2) | collision cross section (charge state: 3)
27 | GERGFPGYPGPK | 366.2 ± 1.3 Å² | 460.83 ± 0.86 Å²
28 | GITGKPGPK | 312.13 ± 0.57 Å² | –
29 | SITHSTVGSKGEK | 404.31 ± 1.8 Å² | 464.75 ± 3.9 Å²
30 | LGHYATQLQK | 363.47 ± 0.14 Å² | 429.28 ± 0.3 Å²
31 | PGPQPSAETTR | 342.87 ± 0.58 Å² | 415.85 ± 2 Å²
32 | YSSSSIPEPFGSRGSPR | 433.42 Å² | 521.94 ± 0.21 Å²
33 | GRGAANDSTQFTVAGR | 411.19 Å² | 473.86 ± 2.3 Å²
34 | TVSKVDDFLANEAK | 420.02 ± 1.7 Å² | 500.46 ± 2.4 Å²
35 | SEASSEFAKK | 351.87 ± 0.55 Å² | 422.04 ± 3.9 Å²
36 | DYVSQFEGSALGK | 385.54 ± 0.47 Å² | –
37 | APEYLHR | 313.96 ± 0.73 Å² | –
38 | PDTQYTGR | 315.91 ± 0.73 Å² | –
39 | VFSIISSEKELK | 413.02 ± 1.5 Å² | 485.92 ± 5.3 Å²
40 | GRGVGSPEPGPTAPYLGR | 432.42 Å² | 517.8 ± 0.62 Å²
41 | PANEKATDDYHYEK | 416.54 ± 2.6 Å² | 493.57 ± 4.5 Å²
42 | LEKDYQPGITFIVVQK | 447.32 ± 0.59 Å² | 488.88 ± 0.86 Å²
43 | FLQEFYQDDELGKK | 448.73 ± 2.1 Å² | 492.87 ± 3.2 Å²
44 | LGNDFHTNKR | 369.4 ± 1.5 Å² | 431.93 ± 3.7 Å²
45 | IGAEVYHHLK | 371.39 ± 0.54 Å² | 435.97 ± 1.1 Å²
46 | AAGQPYEQHAK | 373.09 ± 0.48 Å² | 423.62 ± 1.7 Å²
47 | GTISAPGKVVTAAAQAK | 464.56 ± 3.2 Å² | 518.69 ± 4.3 Å²
48 | TTGFYSGFSEVAEKR | 454.17 ± 3.2 Å² | 530.82 ± 1.6 Å²
49 | LFVGGIKEDTEEHHLR | 486.85 ± 3.6 Å² | 544.82 ± 2.6 Å²
50 | AAINQKLIETGER | 409.65 ± 1.4 Å² | 476.29 ± 7.6 Å²
51 | VHATSTYR | 325.88 ± 0.49 Å² | 398.18 ± 1.6 Å²
52 | GSIGFPGFPGANGEKGGR | – | 519.37 ± 1.2 Å²

Row | Substance | collision cross section (charge state: 2) | collision cross section (charge state: 3)
53 | GVQYLNEIK | 351.72 ± 0.74 Å² | –
54 | IQQELQTAKK | 374.48 ± 0.53 Å² | 429.26 ± 3.7 Å²
55 | TPNLYIYSKK | 381.12 ± 1.4 Å² | 430.18 ± 4.5 Å²
56 | IEDEQALGSQLQK | 401.79 ± 0.14 Å² | 493.77 ± 0.29 Å²
57 | VSFLSALEEYTK | 392.46 ± 0.78 Å² | –
58 | YILIPASQQPK | 375.08 ± 0.48 Å² | –
59 | GNDISSGTVLSDYVGSGPPK | 464.77 ± 1 Å² | –
60 | RGFGFGGFAISAGK | 395.08 ± 0.89 Å² | 486.34 ± 2.6 Å²
61 | PATSYVR | 307.47 ± 0.15 Å² | –
62 | YIGTGHADTTK | 357.91 ± 0.48 Å² | 452.61 ± 1.1 Å²
63 | ASDTSSETVFGKR | 399.16 ± 2.1 Å² | 477.62 ± 3.6 Å²
64 | VPTTEKPTVTVNFR | 427.25 ± 2.6 Å² | 517.02 ± 4.3 Å²
65 | GTGRGGGGGGGGGAPR | 356.62 Å² | 435.15 ± 5.4 Å²
66 | HGGSGGRGVSVSSAR | – | 479.93 ± 1.3 Å²
67 | PGPVGPPGSGGLK | 353.19 ± 0.41 Å² | –
68 | GEPGQGLRGLQGPPGK | 417.18 ± 1.2 Å² | 443.35 ± 0.85 Å²
69 | VGYPGPSGPLGAR | 357.93 ± 0.58 Å² | 439.38 ± 0.85 Å²
70 | LGDVYVNDAFGTAHR | 434.69 ± 0.66 Å² | 501.14 ± 0.88 Å²
71 | VILENIASHEPR | 417.03 ± 1.4 Å² | 473.55 ± 0.22 Å²
72 | GGGYGGDRGGYGGDR | 380.24 Å² | 463.21 ± 0.23 Å²
73 | PLPVALQTRLAK | 398.31 ± 0.59 Å² | 471.01 ± 3.4 Å²
74 | GFPGIQGRK | 338.49 ± 1.5 Å² | 406.74 ± 2 Å²
75 | QGNAVTLGDYYQGR | 415.78 ± 0.66 Å² | –
76 | ALASIDSKLNQAK | 410.25 ± 2 Å² | 481.52 ± 3.4 Å²
77 | LQDVSGQLSSSKK | 403.09 ± 1.5 Å² | 463.47 ± 6.3 Å²
78 | FPGVGVLPGVPTGAGVK | 421.12 ± 0.5 Å² | 509.46 ± 1.2 Å²

Row | Substance | collision cross section (charge state: 2) | collision cross section (charge state: 3)
79 | SGRGGNFGFGDSR | 375.82 ± 0.59 Å² | 452.15 ± 2.9 Å²
80 | VIVGGSSEYK | 346.7 ± 0.59 Å² | –
81 | HHAAYVNNLNVTEEK | 444.13 ± 2.1 Å² | 494.31 ± 0.87 Å²
82 | LTSLNVKYNNDK | 409.04 ± 2 Å² | 487.29 ± 4.9 Å²
83 | TYVQDILR | 349.04 ± 0.59 Å² | –
84 | GNPGVGTQGPR | 333.35 ± 8.7 Å² | –
85 | GYDVIAQAQSGTGK | 388.46 ± 0.16 Å² | –
86 | YLHDESGLNR | 361.42 ± 0.55 Å² | 447.46 ± 1.1 Å²
87 | SSSAGGQGSYVPLLR | 402.55 ± 0.66 Å² | –
88 | SGGRGVSVSSAR | 352.78 ± 0.057 Å² | 442.14 ± 3.7 Å²
89 | VFLDCCNYITELR | 421.63 ± 0.67 Å² | –
90 | IPAASAAAMNLASAR | 397.84 ± 0.66 Å² | 496.43 ± 0.86 Å²
91 | IQNGAQGIRFIYTR | – | 511.04 ± 0.58 Å²
92 | VGVEAKQPNSAIR | 404.68 ± 1.4 Å² | 493.5 ± 7.8 Å²
93 | GHPGPPGPPGEQGLPGLAGK | 440.68 ± 1.2 Å² | 497.21 ± 14 Å²
94 | EPFSGDHSADGFEVTSR | – | 491.61 ± 0.86 Å²
95 | TGGTQTDLFTCGKCK | 431.32 ± 1.2 Å² | 479.49 ± 5.3 Å²
96 | GERGPPGPPGR | 331 ± 1.5 Å² | 441.17 ± 1.4 Å²
97 | GDTGLPGPQGIPGGVGSPGR | 429.26 ± 1 Å² | 497.26 ± 35 Å²
98 | PPGFSPFR | 328.84 ± 0.79 Å² | –
99 | ISPVEESEDVSNK | 399.42 ± 0.14 Å² | –
100 | LGGDLGTYVINK | 369.28 ± 0.16 Å² | –
101 | AYGELPEHAK | 366.13 ± 0.54 Å² | 441.2 ± 1.1 Å²
102 | DYGNSPLHR | 339.65 ± 0.48 Å² | 430.38 ± 2 Å²
103 | IQTKAGEATVK | 361.35 ± 0.94 Å² | 457.37 ± 4.1 Å²
